Experiments:
mouse TIM3 (mouse) [1] = target: mouse TIM3 (mouse) (UniProt Q8VIM0); experiment: binding to activated mouse T cells, compared with TIM3.18 on human TIM-3
mouse TIM3 (mouse) [2] = target: mouse TIM3 (mouse) (UniProt Q8VIM0); experiment: binding to activated mouse T cells; method not stated

mouse TIM3 (mouse), sequence (Q8VIM0 20-281): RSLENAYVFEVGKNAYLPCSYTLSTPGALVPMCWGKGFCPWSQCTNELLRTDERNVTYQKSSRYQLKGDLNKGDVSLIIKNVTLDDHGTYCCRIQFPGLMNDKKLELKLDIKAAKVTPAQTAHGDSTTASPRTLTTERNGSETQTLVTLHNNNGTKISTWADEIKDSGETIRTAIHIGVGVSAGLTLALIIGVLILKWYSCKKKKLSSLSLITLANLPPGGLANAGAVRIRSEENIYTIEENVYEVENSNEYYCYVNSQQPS

fold weaker EC50 than TIM3.18 on human TIM-3 (mouse TIM3 (mouse) [1]): 17 fold
EC50 (mouse TIM3 (mouse) [2]): 1.7 nM
Substance: RMT3-23, rat anti-mouse TIM-3 commercial antibody (Bio-X-Cell)

From patent US20200190186A1
